# Experimental data from article PMC4893650 (Theranostics, 2016).
# Biological target: purified HER2 protein (human epidermal growth factor receptor-2) (human, UniProt P04626 23-652)
# Assay: SPR
binder,measurement,value
CDTFPYLGWWNPNEYRY [peptide P51],Kd,18.6 nM
